Data published in US7893197B2, “Relaxin-3 chimeric polypeptides and their preparation and use” (Janssen Pharmaceutica N.V., priority 2005, dated 2011).
Each block holds one molecule with its values, some of them ahead of it. Ends that are not written are not given here.

Assays:
GPCR142 = biological target: T1, GPCR142 (Homo sapiens, UniProt Q8TDU9, L329S); assay: Inhibition of forskolin stimulated β-galactosidase expression in SK-N-MC/β-gal cells; format: cell-based; details: for EC50 to activate GPCR142: inhibition of 5 μM forskolin stimulated β-galactosidase expression, mean ± SEM, n = 3
T1 construct: expressed in transfected cells
Description: (§8) Different chimeric polypeptides at various concentrations were added to SK-N-MC/β-gal cells expressing human GPCR135 (FIG. 4A) or GPCR142 (FIG. 4B) to inhibit forskolin stimulated β-galactosidase expression. […] In parallel, chimeric polypeptides at various concentrations were added to SK-N-MC/β-gal cells expressing human LGR7 (FIG. 4C) and LGR8 (FIG. 4D) to stimulate β-galactosidase expression. Relaxin-3 and INSL3 were used as positive controls for LGR7 and LGR8, respectively. Intracellular β-galactosidase activity was measured by a colorimetric assay using CRGP as the substrate and reading the absorbance at wavelength of 570 nm. Data represent mean±SEM (n=3).

GPCR135 [1] = biological target: T2, GPCR135 (Homo sapiens, UniProt Q9NSD7); assay: as above; format: cell-based; details: for EC50 to activate GPCR135: inhibition of 5 μM forskolin stimulated β-galactosidase expression, mean ± SEM, n = 3
T2 construct: expressed in transfected cells
T2 sequence (Q9NSD7 1-469): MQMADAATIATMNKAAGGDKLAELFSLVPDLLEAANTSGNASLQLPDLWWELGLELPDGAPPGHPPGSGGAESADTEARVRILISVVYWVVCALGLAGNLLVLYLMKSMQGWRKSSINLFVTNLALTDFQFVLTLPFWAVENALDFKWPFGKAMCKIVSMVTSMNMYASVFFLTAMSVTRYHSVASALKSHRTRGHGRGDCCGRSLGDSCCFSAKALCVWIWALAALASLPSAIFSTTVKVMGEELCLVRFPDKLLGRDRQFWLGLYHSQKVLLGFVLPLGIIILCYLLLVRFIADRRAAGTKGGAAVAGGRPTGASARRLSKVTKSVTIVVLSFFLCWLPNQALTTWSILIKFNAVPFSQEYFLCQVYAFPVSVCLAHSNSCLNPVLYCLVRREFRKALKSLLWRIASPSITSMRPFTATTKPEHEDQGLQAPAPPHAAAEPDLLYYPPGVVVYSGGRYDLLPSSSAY
Description: as §8

LGR7 [2] = biological target: T3, LGR7 (Homo sapiens, UniProt Q9HBX9); assay: Radioligand competition binding, [125I]-relaxin-3, live transfected COS-7 cells; details: [125I]-relaxin-3 100 pM; mean ± SEM, n = 3
T3 construct: Human LGR7 cDNA containing the complete coding region was PCR amplified; expressed in transfected cells
T3 sequence (Q9HBX9 1-757): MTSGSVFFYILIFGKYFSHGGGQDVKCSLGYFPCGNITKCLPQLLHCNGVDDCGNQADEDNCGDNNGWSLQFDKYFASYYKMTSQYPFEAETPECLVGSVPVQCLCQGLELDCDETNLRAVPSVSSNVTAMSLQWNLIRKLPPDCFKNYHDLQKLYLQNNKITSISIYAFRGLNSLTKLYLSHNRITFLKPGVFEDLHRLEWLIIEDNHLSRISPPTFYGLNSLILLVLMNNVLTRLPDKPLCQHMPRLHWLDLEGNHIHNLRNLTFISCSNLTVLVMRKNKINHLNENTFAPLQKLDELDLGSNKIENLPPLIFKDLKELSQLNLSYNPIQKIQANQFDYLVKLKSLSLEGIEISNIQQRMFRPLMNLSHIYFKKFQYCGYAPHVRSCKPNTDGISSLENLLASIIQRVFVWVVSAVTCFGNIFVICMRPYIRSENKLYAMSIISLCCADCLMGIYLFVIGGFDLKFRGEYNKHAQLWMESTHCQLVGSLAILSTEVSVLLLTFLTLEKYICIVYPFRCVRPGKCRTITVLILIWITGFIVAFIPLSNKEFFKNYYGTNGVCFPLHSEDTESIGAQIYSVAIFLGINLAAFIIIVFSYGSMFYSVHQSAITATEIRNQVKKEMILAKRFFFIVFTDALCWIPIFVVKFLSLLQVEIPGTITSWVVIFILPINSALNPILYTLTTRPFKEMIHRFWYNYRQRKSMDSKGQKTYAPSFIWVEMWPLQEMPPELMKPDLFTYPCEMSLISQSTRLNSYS
Description: For GPCR135, GPCR142, and LGR7, [^125I]-relaxin-3 was used as the radioligand at a final concentration of 100 pM. Different unlabeled peptides were used in the binding assay as the competitors. […] Different unlabeled peptides including relaxin-3 chimeras at various concentrations were added to the binding assay as the competitors. Data represent mean±SEM (n=3).
Radioligand binding assays for LGR7 and LGR8 were performed using live COS-7 cells transiently transfected with LGR7 or LGR8 expression plasmids in 15-cm culture dishes using LipofectAmine (Invitrogen). Two days after transfection, the transfected cells were detached from the 15-cm culture dished using phosphate buffered saline (PBS) plus 10 mM EDTA, seeded into 96-well opaque poly-D-lysine coated culture plates and used for radioligand binding assays. For LGR7, [^125I]-relaxin-3 was used as the tracer. […] [^125I]-labeled tracer was added in binding reactions at a final concentration of 100 pM in binding buffer containing DMEM plus 50 mM HEPES and 1% bovine serum albumin. Unlabeled relaxin-3 and relaxin-3 chimeric polypeptides were added at various concentrations to the binding assays as the competitors, as indicated (FIG. 3). The binding mixtures were incubated at room temperature for 1 hour. The unbound radioligand was removed by aspiration of the binding buffer. The cells were washed with PBS. The bound radioligand was counted in a scintillation counter (TopCount/NTX). The results were analyzed using Prism 3.0 program (Graphpad, San Diego, Calif.). The IC50 values represent the ligand concentrations that inhibit 50% of the maximum specific binding.

LGR8 = biological target: T4, LGR8 (Homo sapiens, UniProt Q8WXD0); assay: Stimulation of β-galactosidase expression in SK-N-MC/β-gal cells; format: cell-based
T4 construct: Human LGR8 cDNA containing the complete coding region was PCR amplified; expressed in transfected cells
Description: (§1) FIGS. 1A-1D show the activation of GPCR135 and GPCR142 by relaxin-3 B-chain, but not of LGR7 or LGR8. In FIG. 1A, SK-N-MC/β-gal cells expressing human GPCR135 were stimulated with relaxin-3, relaxin-3 B-chain, porcine relaxin, or INSL3 at various concentrations to inhibit the forskolin stimulated β-galactosidase expression. Forskolin was added to cells at a final concentration of 5 μM to stimulate the β-galactosidase expression. FIG. 1B depicts results for SK-N-MC/β-gal cells expressing human GPCR142 stimulated as in FIG. 1A. In FIG. 1C, SK-N-MC/β-gal cells expressing human LGR7 were stimulated with relaxin-3, relaxin-3 B-chain, porcine relaxin, and INSL3 at various concentrations to induce the β-galactosidase expression. The intracellular β-galactosidase activities were measured by a colorimetric assay using CRGP as the substrate and reading the absorbance at a wavelength of 570 nm. For FIG. 1D, SK-N-MC/β-gal cells expressing human LGR8 were stimulated as in FIG. 1C.
(§2) FIGS. 4A-4D illustrate the evaluation of the agonist activity of relaxin-3 chimeric polypeptides in biofunctional assays. Different chimeric polypeptides at various concentrations were added to SK-N-MC/β-gal cells expressing human GPCR135 (FIG. 4A) or GPCR142 (FIG. 4B) to inhibit forskolin stimulated β-galactosidase expression. Human relaxin-3 was used as the positive control. In parallel, chimeric polypeptides at various concentrations were added to SK-N-MC/β-gal cells expressing human LGR7 (FIG. 4C) and LGR8 (FIG. 4D) to stimulate β-galactosidase expression. Relaxin-3 and INSL3 were used as positive controls for LGR7 and LGR8, respectively. Intracellular β-galactosidase activity was measured by a colorimetric assay using CRGP as the substrate and reading the absorbance at wavelength of 570 nm. Data represent mean±SEM (n=3).
(§3) It has been shown that synthetic human relaxin-3 B-chain alone, but not A-chain, is an agonist for both GPCR135 and GPCR142 (Liu et al., 2003, Journal of Biological Chemistry, 278:50754-50764 and Liu et al., 2003, Journal of Biological Chemistry, 278:50765-50770). Those studies were repeated herein in SK-N-MC/β-gal cells, which harbor a β-galactosidase gene under the control of a cAMP responsive element (CRE) (Liu et al., 2001, Molecular Pharmacology, 59:420-426). In such SK-N-MC/β-gal cells, an increase in intracellular cAMP concentration leads to increased β-galactosidase gene expression, the activity of which is measured using Chlorophenol Red-β-D-Galactopyranoside (CPRG) as the substrate.
(§4) The inventive chimeric polypeptides were each independently tested for their ability to activate either GPCR135, GPCR142, LGR7, or LGR8, respectively, in separate pools of SK-N-MC/β-gal cells (see supra), each pool stably expressing one of the respective receptors, as indicated (FIG. 4).
(§5) Cells were seeded in 96-well tissue culture plate at a density of 30,000 cells/well in MEM plus 10% fetal serum, sodium pyruvate, penicillin, streptomycin, and G418 (400 mg/L). For cells expressing GPCR135 or GPCR142, forskolin was added to cells at a final concentration of 5 μM to stimulate intracellular cAMP accumulation. Different concentrations of each of the inventive polypeptides were then added to the cells to inhibit the forskolin induced cAMP accumulation. For cells expressing LGR7 or LGR8, intracellular cAMP was stimulated with each of the inventive chimeric polypeptides at various concentrations.
(§6) For all cells, after adding the chimeric polypeptides, cells were incubated for 6 additional hours in 37° C. incubator. The media was then aspirated and the β-galactosidase activities measured as previously described (Liu et al., 2001, Molecular Pharmacology, 59:420-426). The results were analyzed by Prism 3.0 software. […]

LGR7 [3] = biological target: T3, LGR7; assay: Binding of radioligands to COS-7 cells transfected with LGR7; details: radioligand 100 pM
Description: (§7) FIGS. 5A-5D illustrate a comparative analysis of the binding specificities of [^125I]-relaxin-3 and [^125I]-R3/I5 for GPCR135 and LGR7. COS-7 cells in 6-well culture dishes were transfected with human GPCR135 and LGR7, respectively. Mock transfected COS-7 cells were used as the negative controls. [^125I]-relaxin-3 (FIG. 5A) or [^125I]-R3/I5 (FIG. 5B) was added to cells at a final concentration of 100 pM either in the absence or presence of 1 uM of unlabeled relaxin-3 to determine total binding and non-specific binding, respectively. FIG. 5C depicts an autoradiogram of [^125]-relaxin-3 binding in rat brain sagittal section. FIG. 5D depicts an autoradiogram of non-specific binding of [^125]-relaxin-3 as determined in the presence of 100 nM of unlabeled relaxin-3. FIG. 5E depicts an autoradiogram of [^125]-R3/I5 binding in rat brain sagittal section. […] binding of [^125]-R3/I5 as determined in the presence of 100 nM of unlabeled relaxin-3.

GPCR135 [4] = biological target: T2, GPCR135; assay: Binding of radioligands to COS-7 cells transfected with GPCR135; details: radioligand 100 pM
Description: as §7

LGR7 [5] = biological target: T3, LGR7; assay: Stimulation of β-galactosidase expression in SK-N-MC/β-gal cells; format: cell-based; details: ligand stimulated β-galactosidase expression; mean ± SEM, n = 3; read-out: EC50 to activate LGR7
Description: as §1, §2, §3, §4, §5, §6

T1 sequence (Q8TDU9 whole entry L329S): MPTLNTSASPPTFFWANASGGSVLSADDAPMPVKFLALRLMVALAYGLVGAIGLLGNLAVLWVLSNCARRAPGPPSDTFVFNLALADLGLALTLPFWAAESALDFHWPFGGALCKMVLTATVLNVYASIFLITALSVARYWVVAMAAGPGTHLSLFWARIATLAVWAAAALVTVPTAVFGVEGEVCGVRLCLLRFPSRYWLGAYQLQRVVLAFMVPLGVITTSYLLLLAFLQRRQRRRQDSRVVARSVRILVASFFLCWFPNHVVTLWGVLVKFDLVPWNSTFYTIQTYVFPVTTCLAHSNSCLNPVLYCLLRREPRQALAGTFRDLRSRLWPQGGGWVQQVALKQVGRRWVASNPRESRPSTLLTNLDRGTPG
T4 sequence (Q8WXD0 whole entry): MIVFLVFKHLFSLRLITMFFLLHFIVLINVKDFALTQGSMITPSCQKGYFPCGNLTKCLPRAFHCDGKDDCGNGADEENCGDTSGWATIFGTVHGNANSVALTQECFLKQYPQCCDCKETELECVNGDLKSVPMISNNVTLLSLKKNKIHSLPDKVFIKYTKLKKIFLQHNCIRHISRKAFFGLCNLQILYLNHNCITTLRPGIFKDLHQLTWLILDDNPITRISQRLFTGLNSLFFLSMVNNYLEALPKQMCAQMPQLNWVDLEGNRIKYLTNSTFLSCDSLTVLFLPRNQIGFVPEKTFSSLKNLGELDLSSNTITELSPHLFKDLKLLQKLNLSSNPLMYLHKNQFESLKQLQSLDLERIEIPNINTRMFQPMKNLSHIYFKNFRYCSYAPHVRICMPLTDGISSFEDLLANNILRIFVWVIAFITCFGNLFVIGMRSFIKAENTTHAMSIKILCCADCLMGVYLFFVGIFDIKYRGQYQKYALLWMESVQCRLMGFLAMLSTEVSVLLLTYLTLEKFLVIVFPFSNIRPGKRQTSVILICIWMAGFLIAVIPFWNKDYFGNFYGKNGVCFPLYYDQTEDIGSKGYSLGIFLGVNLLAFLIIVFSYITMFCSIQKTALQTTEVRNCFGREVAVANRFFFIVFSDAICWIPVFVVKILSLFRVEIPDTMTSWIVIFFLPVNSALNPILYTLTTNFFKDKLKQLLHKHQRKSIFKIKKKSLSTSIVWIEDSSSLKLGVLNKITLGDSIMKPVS

EC50 (GPCR142; read-out: EC50 to activate GPCR142): 125 nM
EC50 (GPCR135 [1]; read-out: EC50 to activate GPCR135): 88 nM
Molecule: CC[C@H](C)[C@H](NC(=O)[C@H](Cc1ccccc1)NC(=O)[C@H](CCC(=O)O)NC(=O)[C@H](CCCNC(=N)N)NC(=O)CNC(=O)[C@H](CS)NC(=O)[C@H](CC(C)C)NC(=O)[C@H](CCCNC(=N)N)NC(=O)[C@@H](NC(=O)CNC(=O)[C@H](Cc1ccc(O)cc1)NC(=O)[C@@H]1CCCN1C(=O)[C@H](C)NC(=O)[C@H](C)NC(=O)[C@@H](N)CCCNC(=N)N)C(C)C)C(=O)N[C@@H](CCCNC(=N)N)C(=O)N[C@@H](C)C(=O)N[C@H](C(=O)N[C@H](C(=O)N[C@@H](Cc1ccccc1)C(=O)N[C@H](C(=O)N[C@@H](CS)C(=O)NCC(=O)NCC(=O)N[C@@H](CO)C(=O)N[C@@H](CCCNC(=N)N)C(=O)N[C@@H](Cc1c[nH]c2ccccc12)C(=O)O)[C@@H](C)O)[C@@H](C)CC)C(C)C [relaxin-3 B-chain, reference compound]

Molecule: R3/I3: chimeric polypeptide: human relaxin-3 B-chain and INSL3 A-chain; mature polypeptide SEQ ID NO:21 (RAAPYGVRLCGREFIRAVIFTCGGSRWNPARYCCLSGCTQQDLLTLC; Human Relaxin-3/Insulin-like 3 chimeric mature polypeptide)
EC50 to activate GPCR142 (GPCR142): low nanomolar range
EC50 to activate GPCR135 (GPCR135 [1]): low nanomolar range
IC50 for binding LGR7 (LGR7 [2]): low nanomolar range

Molecule: R3/R1: chimeric polypeptide: human relaxin-3 B-chain and relaxin-1 A-chain; mature polypeptide SEQ ID NO:19 (RAAPYGVRLCGREFIRAVIFTCGGSRWPYVALFEKCCLIGCTKRSLAKYC; Human Relaxin-3/Relaxin-1 chimeric mature polypeptide)
activation of LGR8, in words (LGR8; highest concentration tested 1 μM): marginal activity at the highest concentration tested (1 μM)
EC50 to activate GPCR142 (GPCR142): low nanomolar range
EC50 to activate GPCR135 (GPCR135 [1]): low nanomolar range
IC50 for binding LGR7 (LGR7 [2]): low nanomolar range

Molecule: R3/R2: chimeric polypeptide: human relaxin-3 B-chain and relaxin-2 A-chain; mature polypeptide SEQ ID NO:20 (RAAPYGVRLCGREFIRAVIFTCGGSRWQLYSALANKCCHVGCTKRSLARFC; Human Relaxin-3/Relaixin-2 chimeric mature polypeptide)
EC50 to activate GPCR142 (GPCR142): low nanomolar range
EC50 to activate GPCR135 (GPCR135 [1]): low nanomolar range
IC50 for binding LGR7 (LGR7 [2]): low nanomolar range

Molecule: [^125I]-relaxin-3: radioiodinated human relaxin-3 used as tracer (RAAPYGVRLCGREFIRAVIFTCGGSRWDVLAGLSSSCCKWGCSKSEISSLC; ends and bridges not checked; also: radioiodinated ([125I]), site not given here) [reference compound]
binding to LGR7, in words (LGR7 [3]): did
binding to GPCR135 expressing cells, in words (GPCR135 [4]): high affinity

EC50 (LGR8; ligand stimulated β-galactosidase expression, mean ± SEM, n = 3, read-out: EC50 to activate LGR8): 1.5 nM
EC50 (LGR7 [5]): 0.25 nM
B1: porcine relaxin: porcine relaxin, reference ligand for LGR7 and LGR8 (protein)
chain: QSTNDFIKACGRELVRLWVEICGSVSWGRTALSLEEPQLETGPPAETMPSSITKDAEILKMMLEFVPNLPQELKATLSERQPSLRELQQSASKDSNLNFEEFKKIILNRQNEAEDKSLLELKNLGLDKHSRKKRLFRMTLSEKCCQVGCIRKDIARLC
